Columns and labels:
[1] = molecular target: mouse (Mus musculus) PCDH15 EC10-MAD12 produced in mammalian cells (mouse (Mus musculus)); test: AUC
[2] = molecular target: mouse (Mus musculus) PCDH15 EC10-MAD12 produced in mammalian cells (mouse (Mus musculus)); test: SEC-MALS
[3] = molecular target: mouse (Mus musculus) PCDH15 EC10-MAD12, refolded from bacteria (mouse (Mus musculus)); test: SEC-SAXS
[4] = molecular target: mouse (Mus musculus) PCDH15 EC10-MAD12, refolded from bacteria (mouse (Mus musculus)); test: SEC-MALS
[5] = molecular target: pig (Sus scrofa) PCDH15 EC10-MAD12 (pig (Sus scrofa)); test: SEC-SAXS
[6] = molecular target: pig (Sus scrofa) PCDH15 EC10-MAD12 (pig (Sus scrofa)); test: AUC
[7] = molecular target: pig (Sus scrofa) PCDH15 EC10-MAD12 (pig (Sus scrofa)); test: SEC-MALS

“mouse (Mus musculus) PCDH15 EC10-MAD12 produced in mammalian cells (domain or fragment)” gave a stoichiometry N [1] of 2 and a stoichiometry N [2] of 2.

“mouse (Mus musculus) PCDH15 EC10-MAD12, refolded from bacteria (domain or fragment)” was tested, and the stoichiometry N [3] was 2 and the stoichiometry N [4] was 2.

Substance “pig (Sus scrofa) PCDH15 EC10-MAD12 (domain or fragment)” has a stoichiometry N [5] of 2, a stoichiometry N [6] of 2 and a stoichiometry N [7] of 2.
